From patent US8569578B1, “Generating transgenic potatoes with novel resistance to potato cyst nematodes by silencing nematode parasitism genes of CLE -1 and CLE-4s” (The United States of America, as represented by the …, priority 2009, dated 2013)
“Also recorded” adds a separate entry of the source.

How the values were obtained:
[1] = test system: Arabidopsis clv3-2 mutant plants; assay: complementation of clv3-2 mutant by Gr-CLE genes under CLV3 promoter; type: in vivo; details: gene under control of CLV3 promoter in clv3-2
Description: Gr-CLE proteins can completely or partially replace CLV3 activity within meristems. For the complementation study, Gr-CLE genes were subcloned into pBU14 under the control of the CLV3 promoter (Brand et al. 2002. Plant Physiol. 129:565-575). To generate the PCLV3:Gr-CLE-1 construct, primer pair of CLE1-spF and CLE1-TGAxbaR was used. To generate PCLV3:Gr-CLE-4-B and PCLV3:Gr-CLE-4-C constructs, primer pair of CLE4B1-spF and 4B1-TGAxbaR was used. Each amplified PCR product was cloned into pBU14 at BamHI and XbaI sites. Arabidopsis clv3-2 mutant plants were transformed with A. tumefaciens GV3101 harboring each of the above constructs.
All transformants were selected on ½×MS medium containing 50 μg/mL of kanamycin (Sigma-Aldrich) (for the pMD1 vector) or 30 μg/mL of glufosinate ammonium (Fisher, Pittsburgh, Pa., U.S.A.) (for the pBU14 vector) and transgenic Arabidopsis plants were then cultivated at 24° C. for 16 h of light and 8 h of dark in a growth room. For measuring the root growth rate, transgenic plants expressing individual Gr-CLE genes or the empty vector were first selected on kanamycin containing medium for five days, then transferred to ½×MS plates and cultured vertically at 24° C. for 16 h of light and 8 h of dark in a growth chamber (Percival, Perry, Iowa, U.S.A.).
Gr-CLE-1, Gr-CLE-4-B, and Gr-CLE-4-C were the most representative Gr-CLE genes identified. To determine if these genes could replace CLV3 activity in the shoot and floral meristems, the full-length sequences of these three genes were cloned under the control of the CLV3 promoter and introduced into Arabidopsis clv3-2 mutant plants. clv mutants have enlarged shoot and floral meristems that lead to shoot fasciation and formation of extra floral organs including an increase in carpel number (Clark et al. 1993, 1995; Kayes and Clark 1998). For example, flowers of a clv3-2 mutant usually have six to seven carpels in the fourth whorl (Clark et al. 1995), whereas wild-type flowers have only two carpels in the fourth whole. Carpel number is a sensitive measurement for meristem size (Clark et al. 1993; Ni and Clark 2006). Multiple independent transgenic lines for each transgene were obtained and analyzed (Table 2).

potato hairy roots = assay: overexpression of Gr-CLE genes in potato hairy roots; type: in vivo; details: measured at 4, 6, 8 and 10 days after dissecting; compared with vector control
Description: To examine root meristems, primary root tips were excised from peptide treated Arabidopsis seedlings or from transgenic potato hairy roots and immediately mounted in water onto a glass slide. Roots were examined under an Olympus BX-50 microscope equipped with Nomarski optics and images were captured using a QImaging Retiga EXi digital CCD camera (QImaging, Surrey, BC, Canada). The root apical meristem (RAM) regions of individual primary roots that covered the distance from the position around the quiescent center to the position where elongated root cells immediately follow cytoplasm-dense meristematic cells were measured microscopically. The collected data were analyzed using the MetaMorph imaging analysis software (Universal Imaging Corporation, Downingtown, Pa., U.S.A.)
A. rhizogenes strain 15834 was transformed with individual transgene constructs of interest and used for the generation of potato hairy roots as described previously (Wang et al. 2007. Mol. Plant Pathol. 8:423-436) with some modifications. Potato stem pieces from tissue cultures were incubated with the transformed A. rhizogenes cell suspension for 10 mins, then transferred onto the callus induction medium containing 1×MS salts (Sigma-Aldrich), 26.7 μM Glycine, 4 μM Nicotinic Acid, 2.4 μM Pyridoxine HCL (Sigma-Aldrich), 1.2 μM Thiamine HCL (Sigma-Aldrich), 0.5 μM Folic Acid, 0.2 μM d-biotin (Sigma-Aldrich), 0.01% Myo-inositol (Acros, Morris Plains, N.J., U.S.A.), 3% sucrose, 0.001% 6-BAP (Sigma-Aldrich), 0.002% NAA (Sigma-Aldrich), and 1% agar and cultivated for four days at 24° C. without light. The infected stem pieces were then cultured on the propagation medium containing 1×MS salts, 1.2 mM NaH2PO4, 0.01% Myo-inositol, 0.1% Thiamine HCl, 3% sucrose, 1% agar, 50 μg/mL of kanamycin, and 238 μg/mL of timentin (GlaxoSmithKline). Timentin was used to inhibit the growth of A. rhizogenes 15834 and kanamycin was added to select for transformed roots. Approximately 12-15 days after root emergence, 1 cm-long root tips were dissected and cultured on vertical plates containing the propagation medium with 119 μg/mL of timentin and the root growth rate was measured at different time points.

Molecule | average number of carpels in flowers and siliques [1] | rescue of clv3-2 meristem defects [1] | length of primary roots of transgenic potato hairy root lines (potato hairy roots)
Gr-CLE-4-B: G. rostochiensis CLE gene of class Gr-CLE-4, cDNA SEQ ID NO: 4 (nucleic acid, listed as Globodera rostochiensis) DNA: ATCATAATTTCCAAAATCCCAATAAAAGCTTCCTCAATAAAGTAAATATGGCCACGAACACAATGCTTTGCCTGTTAATTTTGAGCGTTGTTCTCGCTCTCGCATTTGCTACGAATAAAAAGGGTGATGAAGAACCGGAGAACCATTCGACCGGCATTTTTGGAAAGGTCGGACGAGTTGTGACCGTGGCACTTGCGATGTCGTCTCGTCTGGGAGGGGCTGACGCAACCCGAGGAGGTGGAGCTGTATATGGAGGAAACTTGAAATCCAATCTATTGCCAAACAACAATTGGATGGCGCCACCTCCTCCAATGGCAATGAGAAGTGCCAAAGTCTATGATTCGAAACATTCTCCTGCTGAATATCTTAAAAAATTTGCTCAAGACTTTCGCCGAAAAACCGGCATGCACTCCCAGCGGCATCACGAAGAAACAACACTGGAACAGGAGAAGCGTGTAGCGGGAGCTGGTCCCGACCCAATACATCACCAAGATACAACACTGGAACAGGAGAAGCGTGCAGTCCCAGCTGGGCCCGACCCAAAACATCACGAAGAAACAACACTGGAACAGGAGAAGCGTGCAGTCCCAGCTGGGCCCGACCCAAAACATCACGAAGAAACAACACTGGAACAGGAGAAGCGTGCAGTCCCAGCTGGGCCCGACCCAAAACATCACGAAGAAACAACATTTGAACAGGAGAAGCGTGGTGCGCCAGCTGGGCCCGACCCAATACATCACTGATGCTCTTATTCACAATGCTAAAATATCTGTAGACTATAGATAAATTGCTAGCAACAGATAAATGCCTGATCATAATGCTATGGCTAAGGTATCCGTATTCCGAACTAGCAATATAAGCGCATGCGTAGCTCTATCCATTTAATTTCACAATCTAAAGATTAAAATCTGCAGATATCTAGCTGTAGCTGGGCTATCTGCGGATGGAAAAATCGGCATTCTTAATATAATTTTTAATTGCTTAATAAACTTCAATAAAA | two | nearly complete rescue | short root phenotype
Gr-CLE-1: G. rostochiensis CLE gene, cDNA SEQ ID NO: 1, encoding a 204 amino acid secreted protein with four CLE motifs (nucleic acid, listed as Globodera rostochiensis) DNA: TATTAATATTGACTAATTTTTTTTTACAAACATATTAATATTGACTAAAAAAATTGATTTTAATAACGACTATAGATATTACTTATGGAGCAACAAAAATCGTCATATTTCCCATCAAATTCAAATAAAACAATCTCTCCAATAAAGTAAATATGGCCAAGAACGCAATGCTTTGCCTGCTGATTTTGAGCGTTGTTCTTGCTCTCGCATTTGCTACAAATGAAAAGGATGATAAAGAAGCGGGGAACCTTTCGACCGGCATTTTTGGAAAGGCCGGAAGATTTGTGACCGTGGCACTTGCGATGTCGTCTCGTCTGGGAGGGGCTGGCGCATCCCAAGGAGGTGGAGCTGTACATGGAGAAAGCTTGAAATCCAATCAATTGCAAAACGCCTATCGGATGGCGCTTCCTCCTCCAATGCAAATAAAAAGTGCCGAAATTGACGGATGGAAACCGTCTCCTGATGAATATCTTAAAAAATTTGCTCAAGAATTTCGCCGAAACACCGGTATGAAACCCCAGTCGTATAATGAAGAGAAGCGTGTAACGCCGGGAGGGCCCGACCCACTACATAACCGTGAAAAAATTCTGGAAGAACAGAAGCGTGTAACGCCGGGAGGGCCTGACCCACTACATAACCGTGAAAAAACTCTGGAAGAACAGAAGCGTGTAACGCCGGGAGGGCCTGACCCACTACATAACCGTGAAAAAACTCTGGAAGAACAGAAGCGTGTAACGCCGGGAGTGCCCGACCGACAACATCGCTGAGGCAATACAAAAAGAGTGAAAGAAAATCGACGGATGTCTTTAGTAATTTCAATTCGTTCCTATCTTTCTCGTTCTGAAGACCAAATATCGATGATGTTAATGTTATGTTCGGAAAACAATTTCTGATATGCGCACACTTGGCA | three to four | partial rescue | short root phenotype; also recorded: much shorter
